From patent US20150119475

Target: Snail protein (SNAI1/Snail, expressed as GST fusion in E. coli, GST moiety cleaved with thrombin), O95863
Sequence (O95863 whole entry, the tested form may be a part): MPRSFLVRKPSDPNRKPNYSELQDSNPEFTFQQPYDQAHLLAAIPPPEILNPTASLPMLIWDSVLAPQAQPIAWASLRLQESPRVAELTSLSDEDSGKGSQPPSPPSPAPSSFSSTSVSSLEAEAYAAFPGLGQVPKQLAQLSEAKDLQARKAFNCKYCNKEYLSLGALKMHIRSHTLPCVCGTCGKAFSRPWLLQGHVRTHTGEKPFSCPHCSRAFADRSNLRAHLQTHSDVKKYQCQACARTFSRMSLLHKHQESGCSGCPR

B1: recombinant Akt1 (ProQinase GmbH) (protein)
chain: VADGLKKQEEEEMDFRSGSPSDNSGAEEMEVSLAKPKHRVTMNEFEYLKLLGKGTFGKVILVKEKATGRYYAMKILKKEVIVAKDEVAHTLTENRVLQNSRHPFLTALKYSFQTHDRLCFVMEYANGGELFFHLSRERVFSEDRARFYGAEIVSALDYLHSEKNVVYRDLKLENLMLDKDGHIKITDFGLCKEGIKDGATMKTFCGTPEYLAPEVLEDNDYGRAVDWWGLGVVMYEMMCGRLPFYNQDHEKLFELILMEEIRFPRTLGPEAKSLLSGLLKKDPKQRLGGGSEDAKEIMQHRFFAGIVWQHVYEKKLSPPFKPQVTSETDTRYFDEEFTAQMITITPPDQDDSMECVDSERRPHFPQFSYSASGTA
in vitro kinase assay with 32P-ATP, detected by autoradiography: Akt1 and Akt3 kinases are able to directly phosphorylate Snail protein
